Assay results as given in patent US20150285810A1 (LUDWIG INSTITUTE FOR CANCER RESEARCH, published 2015).
Positions count from the first letter of the chain named. In names and notes the source's numbering stands.

T1: iASPP (249-482)-GST (human, UniProt Q8WUF5 249-482)
T1 construct: not shown: GST tag from pGEX vector
T1 sequence: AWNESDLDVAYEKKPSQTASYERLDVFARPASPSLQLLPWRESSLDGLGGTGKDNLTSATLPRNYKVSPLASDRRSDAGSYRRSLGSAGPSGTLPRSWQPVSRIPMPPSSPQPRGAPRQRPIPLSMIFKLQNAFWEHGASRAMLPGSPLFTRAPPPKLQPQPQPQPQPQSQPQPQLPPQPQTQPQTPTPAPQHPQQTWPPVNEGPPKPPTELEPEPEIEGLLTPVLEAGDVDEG

T2: iASPP (1-240)-GST (human, UniProt Q8WUF5 1-240)
T2 construct: Expressed in bacteria, purified on glutathione beads; also called N-terminal iASPP; not shown: GST tag from pGEX vector (BamHI/EcoRI cloning)
T2 sequence: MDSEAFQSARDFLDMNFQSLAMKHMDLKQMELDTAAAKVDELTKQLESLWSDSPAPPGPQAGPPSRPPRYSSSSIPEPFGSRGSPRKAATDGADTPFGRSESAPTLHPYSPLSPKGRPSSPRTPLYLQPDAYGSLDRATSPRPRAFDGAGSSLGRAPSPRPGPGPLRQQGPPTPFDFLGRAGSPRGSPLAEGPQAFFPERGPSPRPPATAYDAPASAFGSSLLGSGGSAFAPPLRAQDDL

B1: iASPP(S84D/S113D)-V5 (other, not shown: small tags and cut ends)
chain: MDSEAFQSARDFLDMNFQSLAMKHMDLKQMELDTAAAKVDELTKQLESLWSDSPAPPGPQAGPPSRPPRYSSSSIPEPFGSRGDPRKAATDGADTPFGRSESAPTLHPYSPLDPKGRPSSPRTPLYLQPDAYGSLDRATSPRPRAFDGAGSSLGRAPSPRPGPGPLRQQGPPTPFDFLGRAGSPRGSPLAEGPQAFFPERGPSPRPPATAYDAPASAFGSSLLGSGGSAFAPPLRAQDDLTLRRRPPKAWNESDLDVAYEKKPSQTASYERLDVFARPASPSLQLLPWRESSLDGLGGTGKDNLTSATLPRNYKVSPLASDRRSDAGSYRRSLGSAGPSGTLPRSWQPVSRIPMPPSSPQPRGAPRQRPIPLSMIFKLQNAFWEHGASRAMLPGSPLFTRAPPPKLQPQPQPQPQPQSQPQPQLPPQPQTQPQTPTPAPQHPQQTWPPVNEGPPKPPTELEPEPEIEGLLTPVLEAGDVDEGPVARPLSPTRLQPALPPEAQSVPELEEVARVLAEIPRPLKRRGSMEQAPAVALPPTHKKQYQQIISRLFHRHGGPGPGGPEPELSPITEGSEARAGPPAPAPPAPIPPPAPSQSSPPEQPQSMEMRSVLRKAGSPRKARRARLNPLVLLLDAALTGELEVVQQAVKEMNDPSQPNEEGITALHNAICGANYSIVDFLITAGANVNSPDSHGWTPLHCAASCNDTVICMALVQHGAAIFATTLSDGATAFEKCDPYREGYADCATYLADVEQSMGLMNSGAVYALWDYSAEFGDELSFREGESVTVLRRDGPEETDWWWAALHGQEGYVPRNYFGLFPRVKPQRSKV
B2: iASPP (625-828)-His (other)
chain: LNPLVLLLDAALTGELEVVQQAVKEMNDPSQPNEEGITALHNAICGANYSIVDFLITAGANVNSPDSHGWTPLHCAASCNDTVICMALVQHGAAIFATTLSDGATAFEKCDPYREGYADCATYLADVEQSMGLMNSGAVYALWDYSAEFGDELSFREGESVTVLRRDGPEETDWWWAALHGQEGYVPRNYFGLFPRVKPQRSKVHHHHHH
notes: Contains the ankyrin repeats and SH3 domain; FITC-labelled in the nuclear import assay; also called C-terminal iASPP
B3: iASPP (625-828)-V5, wild type, in vitro translated (other)
chain: LNPLVLLLDAALTGELEVVQQAVKEMNDPSQPNEEGITALHNAICGANYSIVDFLITAGANVNSPDSHGWTPLHCAASCNDTVICMALVQHGAAIFATTLSDGATAFEKCDPYREGYADCATYLADVEQSMGLMNSGAVYALWDYSAEFGDELSFREGESVTVLRRDGPEETDWWWAALHGQEGYVPRNYFGLFPRVKPQRSKV
notes: not shown: V5 tag
B4: iASPP(625-828)/Y814A (other)
chain: B3 chain with Y190A
notes: In vitro translated; not shown: V5 tag
B5: iASPP(625-828)/T722A/Y814A (other)
chain: B3 chain with T98A, Y190A
notes: as for B4
B6: iASPP(625-828)/L724A (other)
chain: B3 chain with L100A
notes: as for B4
B7: iASPP(625-828)/T722A/N813A (other)
chain: B3 chain with T98A, N189A
notes: as for B4
B8: iASPP(625-828)/T722A (other)
chain: B3 chain with T98A
notes: as for B4
B9: iASPP(625-828)/N813A (other)
chain: B3 chain with N189A
notes: as for B4
B10: ASPP2 (905-1128)-His (other)
chain: RTNLRKTGSERIAHGMRVKFNPLALLLDSSLEGEFDLVQRIIYEVDDPSLPNDEGITALHNAVCAGHTEIVKFLVQFGVNVNAADSDGWTPLHCAASCNNVQVCKFLVESGAAVFAMTYSDMQTAADKCEEMEEGYTQCSQFLYGVQEKMGIMNKGVIYALWDYEPQNDDELPMKEGDCMTIIHREDEDEIEWWWARLNDKEGYVPRNLLGLYPRIKPRQRSLAHHHHHH
notes: FITC-labelled in the nuclear import assay; also called C-terminus of ASPP2
B11: iASPP (1-240) S84D/S113D (other)
chain: T2 sequence with S84D, S113D
notes: also called iASPP phosphor-mimic mutant; not shown: GST tag from pGEX vector

Assays:
[1] = target: p53, transfected (co-transfected in H1299 cells; transfected in Saos-2 cells) (UniProt P04637 1-393); assay: cell-based or functional assay
iASPP (249-482)-GST = target: T1, iASPP (249-482)-GST; assay: glutathione bead pull-down of purified proteins, anti-His blot
iASPP (1-240)-GST [2] = target: T2, iASPP (1-240)-GST; assay: in vitro translated iASPP(625-828)-V5 pulled down with iASPP(1-240)-GST glutathione beads
iASPP (1-240)-GST [3] = target: T2, iASPP (1-240)-GST; assay: in vitro translated iASPP(625-828)-V5 mutant pulled down with iASPP(1-240)-GST glutathione beads
iASPP (1-240)-GST [4] = target: T2, iASPP (1-240)-GST; assay: glutathione bead pull-down of purified proteins, anti-His blot
iASPP (625-828)-His = target: B2; assay: as above

p53, transfected (co-transfected in H1299 cells; transfected in Saos-2 cells), sequence (P04637 whole entry): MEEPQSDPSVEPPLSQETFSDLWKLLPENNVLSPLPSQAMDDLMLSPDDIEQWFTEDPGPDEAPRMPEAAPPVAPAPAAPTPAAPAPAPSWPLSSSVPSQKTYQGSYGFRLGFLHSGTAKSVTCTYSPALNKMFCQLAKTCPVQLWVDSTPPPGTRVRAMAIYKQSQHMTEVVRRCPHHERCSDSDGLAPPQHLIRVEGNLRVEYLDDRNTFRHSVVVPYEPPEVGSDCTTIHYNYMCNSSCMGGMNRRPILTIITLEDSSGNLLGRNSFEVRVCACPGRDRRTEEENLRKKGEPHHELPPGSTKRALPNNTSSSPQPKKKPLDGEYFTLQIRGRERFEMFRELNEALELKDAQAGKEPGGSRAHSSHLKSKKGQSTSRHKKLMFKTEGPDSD

| binding result (iASPP (1-240)-GST [3]) | Binder | also measured |
| --- | --- | --- |
|  | B1 | inhibition of p53 mediated transcription (PIG3 reporter, Saos-2 cells), against wild type iASPP [1]: ~3 fold |
|  | B2 | binding result (iASPP (249-482)-GST): no binding (tested: 10 µg/ml each) |
|  | B3 | binding result (iASPP (1-240)-GST [2]): binds |
| binds | B4 |  |
| binds | B5 |  |
| binds | B6 |  |
| binds | B7 |  |
| binds | B8 |  |
| binds | B9 |  |
|  | B10 | binding result (iASPP (1-240)-GST [4]): no binding (tested: 10 µg/ml each) |
|  | B11 | binding result (iASPP (625-828)-His): no binding (tested: 10 µg/ml each) |
